According to patent US5681819:

Experiments:
[1] = target: receptor on the rat intestine surface that binds the C-tail of BAL (CT-receptors)
[2] = target: receptor on the rat intestine surface that binds the C-tail of BAL (CT-receptors); remark: listed apart in the source
[3] = target: receptor on the rat intestine surface that binds the C-tail of BAL (CT-receptors); remark: listed apart in the source
[4] = target: receptor on the mouse small intestine surface that binds the C-tail of BAL (CT receptor); test: 125I-labelled protein retained in ligated mouse small intestine segments after washing; mean of 3 experiments

| Molecule | cholesterol uptake of rat intestine after removal of bound BAL with EGTA [1] | cholesterol uptake of rat intestine segments from 3H cholesterol oleate [2] | Cholesterol Uptake [3] [nmol/g/h] | Bound [4] [ng/cm] |
| --- | --- | --- | --- | --- |
| isolated C-tail of human milk BAL (protein, about 8 to 10 O-linked oligosaccharides per C-tail molecule, most if not all on threonine (fucose, galactose, galactosamine, glucosamine)) ALPTVTDQEATPVPPTGDSEATPVPPTGDSETAPVPPTGDSGAPPVPPTGDSGAPPVPPTGDSGAPPVPPTGDSGAPPVPPTGDSGAPPVPPTGDSGAPPVPPTGDSGAPPVPPTGDAGPPPVPPTGDSGAPPVPPTGDSGAPPVTPTGDSETAPVPPTGDSGAPPVPPTGDSEAAPVPPTDDSK |  | 10 % of control |  |  |
| native human milk bile salt-activated lipase (enzyme, O-linked oligosaccharides in the C-tail, primarily on threonine; 125I-labelled in the mouse intestine binding experiment) AKLGAVYTEGGFVEGVNKKLGLLGDSVDIFKGIPFAAPTKALENPQPHPGWQGTLKAKNFKKRCLQATITQDSTYGDEDCLYLNIWVPQGRKQVSRDLPVMIWIYGGAFLMGSGHGANFLNNYLYDGEEIATRGNVIVVTFNYRVGPLGFLSTGDANLPGNYGLRDQHMAIAWVKRNIAAFGGDPNNITLFGESAGGASVSLQTLSPYNKGLIRRAISQSGVALSPWVIQKNPLFWAKKVAEKVGCPVGDAARMAQCLKVTDPRALTLAYKVPLAGLEYPMLHYVGFVPVIDGDFIPADPINLYANAADIDYIAGTNNMDGHIFASIDMPAINKGNKKVTEEDFYKLVSEFTITKGLRGAKTTFDVYTESWAQDPSQENKKKTVVDFETDVLFLVPTEIALAQHRANAKSAKTYAYLFSHPSRMPVYPKWVGADHADDIQYVFGKPFATPTGYRPQDRTVSKAMIAYWTNFAKTGDPNMGDSAVPTHWEPYTTENSGYLEITKKMGSSSMKRSLRTNFLRYWTLTYLALPTVTDQEATPVPPTGDSEATPVPPTGDSETAPVPPTGDSGAPPVPPTGDSGAPPVPPTGDSGAPPVPPTGDSGAPPVPPTGDSGAPPVPPTGDSGAPPVPPTGDSGAPPVPPTGDAGPPPVPPTGDSGAPPVPPTGDSGAPPVTPTGDSETAPVPPTGDSGAPPVPPTGDSEAAPVPPTDDSKEAQMPAVIRF |  |  | 14.4 | 384 |

More lines, now with the values ahead:

| cholesterol uptake of rat intestine after removal of bound BAL with EGTA [1] | cholesterol uptake of rat intestine segments from 3H cholesterol oleate [2] | Cholesterol Uptake [3] [nmol/g/h] | Bound [4] [ng/cm] | Molecule |
| --- | --- | --- | --- | --- |
| 16 % of control |  |  |  | rat endogenous intestinal BAL (from UniProt P07882) (enzyme) |
|  |  | 7.32 | 33 | recombinant truncated form of bile salt-activated lipase (T-BAL, residues 1-538 lacking the carboxy terminal end) (enzyme, not glycosylated (expressed in E. coli); 125I-labelled in the mouse intestine binding experiment) AKLGAVYTEGGFVEGVNKKLGLLGDSVDIFKGIPFAAPTKALENPQPHPGWQGTLKAKNFKKRCLQATITQDSTYGDEDCLYLNIWVPQGRKQVSRDLPVMIWIYGGAFLMGSGHGANFLNNYLYDGEEIATRGNVIVVTFNYRVGPLGFLSTGDANLPGNYGLRDQHMAIAWVKRNIAAFGGDPNNITLFGESAGGASVSLQTLSPYNKGLIRRAISQSGVALSPWVIQKNPLFWAKKVAEKVGCPVGDAARMAQCLKVTDPRALTLAYKVPLAGLEYPMLHYVGFVPVIDGDFIPADPINLYANAADIDYIAGTNNMDGHIFASIDMPAINKGNKKVTEEDFYKLVSEFTITKGLRGAKTTFDVYTESWAQDPSQENKKKTVVDFETDVLFLVPTEIALAQHRANAKSAKTYAYLFSHPSRMPVYPKWVGADHADDIQYVFGKPFATPTGYRPQDRTVSKAMIAYWTNFAKTGDPNMGDSAVPTHWEPYTTENSGYLEITKKMGSSSMKRSLRTNFLRYWTLTYLALPTVTDQEAT |
